This is an account of results in the supplement of paper PMC9112550, “Optimization of the antimicrobial peptide Bac7 by deep mutational scanning” (BMC Biology, 2022).

The data set concerns Escherichia coli TOP10. Put plainly: shrunken log2 fold change of peptide-encoding DNA abundance (4.5 h post-induction vs induction); higher = less antimicrobial activity (less host growth inhibition). The note with it: time post-induction: 4.5 h; library: site-saturation at positions 5, 18, 19, 20.
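Further: peptides expressed intracellularly from a pBAD plasmid library in pooled LB shake-flask culture, induced with 0.3% L-arabinose, DNA abundance read by NGS, three biological replicates, DESeq2 with apeglm shrinkage.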

For RRIRWRPPRLPRPRPRPSAVPRP, the “shrunken log2 fold change” value worked out at 0.6.

Consider RRIRDRPPRLPRPRPRPALRPRP, for which the “shrunken log2 fold change” value worked out at 0.0869.

As for RRIRCRPPRLPRPRPRPDGHPRP, the “shrunken log2 fold change” value was -0.00753.

As to RRIRPRPPRLPRPRPRPIQAPRP, the “shrunken log2 fold change” value is 0.144.

As to RRIRMRPPRLPRPRPRPDKHPRP, the “shrunken log2 fold change” value was 0.253.

Regarding RRIRPRPPRLPRPRPRPQCYPRP, the “shrunken log2 fold change” value is -0.44.

Take RRIRLRPPRLPRPRPRPICAPRP: the “shrunken log2 fold change” value is 0.0264.

On to RRIRFRPPRLPRPRPRPNFDPRP, for which the “shrunken log2 fold change” value was -0.181.

Regarding RRIRTRPPRLPRPRPRPDNRPRP, the “shrunken log2 fold change” value is -0.0132.

With RRIRHRPPRLPRPRPRPFMLPRP, the “shrunken log2 fold change” value is -0.726.

On to RRIRMRPPRLPRPRPRPENNPRP, for which the “shrunken log2 fold change” value turned out to be 1.53.

As to RRIRVRPPRLPRPRPRPKRWPRP, the “shrunken log2 fold change” value is 0.706.

Take RRIRERPPRLPRPRPRPQLPPRP: the “shrunken log2 fold change” value stood at 0.021.

For RRIRCRPPRLPRPRPRPEAMPRP, the “shrunken log2 fold change” value was 0.536.

For RRIRGRPPRLPRPRPRPKYWPRP, the “shrunken log2 fold change” value is 1.13.

Regarding RRIRHRPPRLPRPRPRPAHWPRP, the “shrunken log2 fold change” value was -0.179.

As to RRIRERPPRLPRPRPRPAGTPRP, the “shrunken log2 fold change” value came out at 0.346.

RRIRERPPRLPRPRPRPELRPRP: the “shrunken log2 fold change” value was found to be 0.0526.

As to RRIRIRPPRLPRPRPRPGHSPRP, the “shrunken log2 fold change” value was 0.00697.

Turning to RRIRFRPPRLPRPRPRPCETPRP, the “shrunken log2 fold change” value is -0.00947.

As for RRIRNRPPRLPRPRPRPIKLPRP, the “shrunken log2 fold change” value is -0.0869.

Take RRIRIRPPRLPRPRPRPIREPRP: the “shrunken log2 fold change” value is -0.0273.

For RRIRRRPPRLPRPRPRPWTFPRP, the “shrunken log2 fold change” value was -0.103.

As to RRIRLRPPRLPRPRPRPWYHPRP, the “shrunken log2 fold change” value was found to be 0.112.

RRIRFRPPRLPRPRPRPTRKPRP: the “shrunken log2 fold change” value amounted to 0.516.

With RRIRQRPPRLPRPRPRPEGFPRP, the “shrunken log2 fold change” value was -0.0494.

In the case of RRIRARPPRLPRPRPRPWSNPRP, the “shrunken log2 fold change” value came out at 0.0711.

As for RRIRTRPPRLPRPRPRPTIMPRP, the “shrunken log2 fold change” value was -0.597.

Turning to RRIRIRPPRLPRPRPRPQNEPRP, the “shrunken log2 fold change” value was -0.226.

On to RRIRPRPPRLPRPRPRPCPDPRP, for which the “shrunken log2 fold change” value came to 0.0391.

RRIRHRPPRLPRPRPRPPERPRP: the “shrunken log2 fold change” value amounted to 0.511.

With RRIRFRPPRLPRPRPRPRSAPRP, the “shrunken log2 fold change” value was found to be 0.379.

For RRIRARPPRLPRPRPRPCQWPRP, the “shrunken log2 fold change” value is -0.0491.

As to RRIRKRPPRLPRPRPRPMDCPRP, the “shrunken log2 fold change” value stood at 0.0101.

For the sequence RRIRARPPRLPRPRPRPHGYPRP, the “shrunken log2 fold change” value was found to be 0.0466.

For the sequence RRIRERPPRLPRPRPRPWPSPRP, the “shrunken log2 fold change” value amounted to 0.134.

Consider RRIRDRPPRLPRPRPRPTMSPRP, for which the “shrunken log2 fold change” value worked out at 0.0526.

As for RRIRERPPRLPRPRPRPSMVPRP, the “shrunken log2 fold change” value was -0.86.

In the case of RRIRVRPPRLPRPRPRPWLMPRP, the “shrunken log2 fold change” value is -0.136.

On to RRIRLRPPRLPRPRPRPGQDPRP, for which the “shrunken log2 fold change” value worked out at 0.0899.

For RRIRNRPPRLPRPRPRPDPTPRP, the “shrunken log2 fold change” value was found to be 0.0817.

Take RRIRTRPPRLPRPRPRPDVRPRP: the “shrunken log2 fold change” value is -0.31.

Consider RRIRERPPRLPRPRPRPTASPRP, for which the “shrunken log2 fold change” value was -0.15.

For RRIRQRPPRLPRPRPRPVIMPRP, the “shrunken log2 fold change” value was -0.348.

On to RRIRRRPPRLPRPRPRPYQWPRP, for which the “shrunken log2 fold change” value was -0.244.

For RRIRHRPPRLPRPRPRPHTHPRP, the “shrunken log2 fold change” value was -0.725.

In the case of RRIRARPPRLPRPRPRPIEQPRP, the “shrunken log2 fold change” value was found to be 0.124.

With RRIRRRPPRLPRPRPRPHREPRP, the “shrunken log2 fold change” value is -0.0451.

Turning to RRIRFRPPRLPRPRPRPHRYPRP, the “shrunken log2 fold change” value is -0.402.

For the sequence RRIRKRPPRLPRPRPRPHGEPRP, the “shrunken log2 fold change” value was 0.428.

Take RRIRMRPPRLPRPRPRPGSIPRP: the “shrunken log2 fold change” value came to 0.239.

Turning to RRIRTRPPRLPRPRPRPHLGPRP, the “shrunken log2 fold change” value came to 0.0458.

Regarding RRIRTRPPRLPRPRPRPKNGPRP, the “shrunken log2 fold change” value was found to be 0.0173.

For RRIRGRPPRLPRPRPRPTEWPRP, the “shrunken log2 fold change” value came out at 1.23.

RRIRIRPPRLPRPRPRPDNHPRP: the “shrunken log2 fold change” value was -0.0565.

RRIRVRPPRLPRPRPRPVPHPRP: the “shrunken log2 fold change” value stood at 0.135.

Turning to RRIRMRPPRLPRPRPRPPNDPRP, the “shrunken log2 fold change” value is 0.574.

In the case of RRIRERPPRLPRPRPRPQDCPRP, the “shrunken log2 fold change” value turned out to be 0.015.

As to RRIRKRPPRLPRPRPRPLVKPRP, the “shrunken log2 fold change” value was determined as 0.195.

In the case of RRIRARPPRLPRPRPRPVELPRP, the “shrunken log2 fold change” value is 0.0828.

RRIRWRPPRLPRPRPRPGIVPRP: the “shrunken log2 fold change” value is 0.585.

For RRIRGRPPRLPRPRPRPSLSPRP, the “shrunken log2 fold change” value was 0.576.

In the case of RRIRWRPPRLPRPRPRPPFFPRP, the “shrunken log2 fold change” value was 0.224.

Consider RRIRFRPPRLPRPRPRPDCWPRP, for which the “shrunken log2 fold change” value is -0.0344.

Regarding RRIRIRPPRLPRPRPRPYYWPRP, the “shrunken log2 fold change” value was -0.449.

On to RRIRERPPRLPRPRPRPQWCPRP, for which the “shrunken log2 fold change” value is -0.262.

For RRIRNRPPRLPRPRPRPHWWPRP, the “shrunken log2 fold change” value came out at 0.127.

Turning to RRIRERPPRLPRPRPRPQWSPRP, the “shrunken log2 fold change” value came out at 0.0836.

Take RRIRCRPPRLPRPRPRPESIPRP: the “shrunken log2 fold change” value was -0.263.

For RRIRKRPPRLPRPRPRPHLAPRP, the “shrunken log2 fold change” value turned out to be 0.0615.

On to RRIRQRPPRLPRPRPRPTAKPRP, for which the “shrunken log2 fold change” value is 0.151.

As for RRIRIRPPRLPRPRPRPEEMPRP, the “shrunken log2 fold change” value is -0.416.

As for RRIRTRPPRLPRPRPRPKYYPRP, the “shrunken log2 fold change” value was -0.54.

In the case of RRIRARPPRLPRPRPRPCNVPRP, the “shrunken log2 fold change” value is -0.0688.

For RRIRLRPPRLPRPRPRPEVEPRP, the “shrunken log2 fold change” value is 0.0199.

Regarding RRIRVRPPRLPRPRPRPVFDPRP, the “shrunken log2 fold change” value is -0.079.

As to RRIRERPPRLPRPRPRPRTKPRP, the “shrunken log2 fold change” value was 0.175.

For RRIRQRPPRLPRPRPRPVLGPRP, the “shrunken log2 fold change” value was 0.226.

Regarding RRIRDRPPRLPRPRPRPQKIPRP, the “shrunken log2 fold change” value turned out to be 0.0171.

Take RRIRERPPRLPRPRPRPVDEPRP: the “shrunken log2 fold change” value is -0.56.

Turning to RRIRSRPPRLPRPRPRPGYWPRP, the “shrunken log2 fold change” value was -0.0968.

For RRIRIRPPRLPRPRPRPEMIPRP, the “shrunken log2 fold change” value was -0.0257.

RRIRIRPPRLPRPRPRPIHEPRP: the “shrunken log2 fold change” value was -0.316.

On to RRIRWRPPRLPRPRPRPNYHPRP, for which the “shrunken log2 fold change” value was -0.486.

As for RRIRGRPPRLPRPRPRPLQCPRP, the “shrunken log2 fold change” value was 0.904.

As to RRIRGRPPRLPRPRPRPWVIPRP, the “shrunken log2 fold change” value was -0.257.

On to RRIRYRPPRLPRPRPRPTEFPRP, for which the “shrunken log2 fold change” value is -0.465.

For the sequence RRIRPRPPRLPRPRPRPNKNPRP, the “shrunken log2 fold change” value was -0.24.

Consider RRIRMRPPRLPRPRPRPLTNPRP, for which the “shrunken log2 fold change” value came to 0.0401.

For RRIRSRPPRLPRPRPRPEMAPRP, the “shrunken log2 fold change” value was found to be 1.22.

Take RRIRWRPPRLPRPRPRPWCHPRP: the “shrunken log2 fold change” value is -0.422.

For the sequence RRIRCRPPRLPRPRPRPCPNPRP, the “shrunken log2 fold change” value was -0.14.

With RRIRRRPPRLPRPRPRPHNFPRP, the “shrunken log2 fold change” value was -0.0578.

With RRIRIRPPRLPRPRPRPFSKPRP, the “shrunken log2 fold change” value is -0.05.

As to RRIRERPPRLPRPRPRPDWAPRP, the “shrunken log2 fold change” value is 0.0306.

RRIRQRPPRLPRPRPRPHLPPRP: the “shrunken log2 fold change” value stood at 0.0272.

In the case of RRIRIRPPRLPRPRPRPMTPPRP, the “shrunken log2 fold change” value was found to be 0.0425.

As to RRIRWRPPRLPRPRPRPTATPRP, the “shrunken log2 fold change” value was determined as 0.528.

Consider RRIRNRPPRLPRPRPRPMCPPRP, for which the “shrunken log2 fold change” value is -0.0135.

With RRIRWRPPRLPRPRPRPCSFPRP, the “shrunken log2 fold change” value is 0.0624.

In the case of RRIRWRPPRLPRPRPRPCIKPRP, the “shrunken log2 fold change” value stood at 0.0427.

Take RRIRKRPPRLPRPRPRPKCVPRP: the “shrunken log2 fold change” value turned out to be 0.52.

With RRIRIRPPRLPRPRPRPSDQPRP, the “shrunken log2 fold change” value is -0.528.

Take RRIRERPPRLPRPRPRPLGTPRP: the “shrunken log2 fold change” value was -0.0681.

As to RRIRRRPPRLPRPRPRPEMTPRP, the “shrunken log2 fold change” value was found to be 0.638.

With RRIRNRPPRLPRPRPRPKFWPRP, the “shrunken log2 fold change” value is 0.177.

As for RRIRMRPPRLPRPRPRPMHMPRP, the “shrunken log2 fold change” value stood at 0.0153.

Turning to RRIRLRPPRLPRPRPRPFEVPRP, the “shrunken log2 fold change” value came to 0.0377.

Take RRIRERPPRLPRPRPRPPPPPRP: the “shrunken log2 fold change” value turned out to be 0.646.

On to RRIRVRPPRLPRPRPRPYDFPRP, for which the “shrunken log2 fold change” value is -0.00884.

For the sequence RRIRPRPPRLPRPRPRPKPHPRP, the “shrunken log2 fold change” value is 0.294.

Regarding RRIRFRPPRLPRPRPRPFVWPRP, the “shrunken log2 fold change” value is -0.0869.

Take RRIRCRPPRLPRPRPRPTNIPRP: the “shrunken log2 fold change” value was -0.662.

As to RRIRYRPPRLPRPRPRPRPDPRP, the “shrunken log2 fold change” value is -0.0672.

For the sequence RRIRPRPPRLPRPRPRPMPWPRP, the “shrunken log2 fold change” value is 0.215.

Regarding RRIRRRPPRLPRPRPRPHITPRP, the “shrunken log2 fold change” value is -0.385.

Take RRIRGRPPRLPRPRPRPFGQPRP: the “shrunken log2 fold change” value is 0.368.

Take RRIRCRPPRLPRPRPRPNCFPRP: the “shrunken log2 fold change” value is -0.0988.

RRIRYRPPRLPRPRPRPKGTPRP: the “shrunken log2 fold change” value is -0.0217.

For RRIRIRPPRLPRPRPRPYPRPRP, the “shrunken log2 fold change” value was -0.311.

On to RRIRVRPPRLPRPRPRPGFDPRP, for which the “shrunken log2 fold change” value is 0.0552.

Consider RRIRCRPPRLPRPRPRPGWNPRP, for which the “shrunken log2 fold change” value is -0.243.

Take RRIRGRPPRLPRPRPRPQPHPRP: the “shrunken log2 fold change” value was found to be 0.582.

For the sequence RRIRQRPPRLPRPRPRPVKYPRP, the “shrunken log2 fold change” value is -0.067.

Turning to RRIRNRPPRLPRPRPRPTVEPRP, the “shrunken log2 fold change” value is 0.0287.
